Reference: article PMC10815899

Tests used:
[1] = molecular target: GAPDH present on the surface of N. glabratus cells (N. glabratus (endogenous in CBS138 / ATCC 2001)); assay: SEC; Superdex 200 HR 10/50, calibrated with molecular mass standards, 0.5 mL/min; buffer 20 mM Tris-HCl pH 6.7 (methods) or 50 mM NaH2PO4, 150 mM NaCl pH 7.0
[2] = molecular target: epithelial adhesin 6 of N. glabratus (N. glabratus (endogenous)) (UniProt Q6FX55); assay: BLI; Octet N1; Epa6 immobilised on an AR2G biosensor; NgGAPDH 100–1000 nM; Langmuir 1:1 model
[3] = molecular target: cytoplasmic Nakaseomyces glabratus glyceraldehyde 3-phosphate dehydrogenase (N. glabratus (endogenous in CBS138 / ATCC 2001)); assay: SEC; Superdex 200 HR 10/50, calibrated with molecular mass standards, 0.5 mL/min; buffer 20 mM Tris-HCl pH 6.7 (methods) or 50 mM NaH2PO4, 150 mM NaCl pH 7.0
[4] = molecular target: vitronectin (Homo sapiens) (UniProt P04004); details: cited from earlier work
Sequence of vitronectin (Homo sapiens) (P04004 399-478): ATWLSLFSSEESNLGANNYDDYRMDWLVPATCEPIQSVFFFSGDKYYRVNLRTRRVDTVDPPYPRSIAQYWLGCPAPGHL

[5] = molecular target: cytoplasmic Nakaseomyces glabratus glyceraldehyde 3-phosphate dehydrogenase (N. glabratus (endogenous in CBS138 / ATCC 2001)); assay: BLI; Octet N1; GAPDH amine-coupled on an AR2G biosensor; VTR or HPG 31–500 nM in solution; Langmuir 1:1 model
[6] = molecular target: recombinant Candida albicans glyceraldehyde 3-phosphate dehydrogenase (C. albicans) (UniProt Q5ADM7); assay: as above
[7] = molecular target: GAPDH on the surface of C. albicans cells (C. albicans (endogenous in ATCC 10231)) (UniProt Q5ADM7); assay: whole-cell binding assay with antibody blocking (SA-HRP/TMB); C. albicans hyphae in MaxiSorp wells (10^6 cells per well) or N. glabratus cells in tubes (3 × 10^7 per tube), pre-incubated with polyclonal anti-ScGAPDH antibody (1 µg/mL), then 150 nM biotin-labeled VTR or HPG, 1 h at 37 °C
[8] = molecular target: GAPDH present on the surface of N. glabratus cells (N. glabratus (endogenous in CBS138 / ATCC 2001)); assay: as above
[9] = molecular target: cytoplasmic Nakaseomyces glabratus glyceraldehyde 3-phosphate dehydrogenase (N. glabratus (endogenous in CBS138 / ATCC 2001)); assay: SPR; Biacore 3000; GAPDH amine-coupled on a CM5 chip; VTR 10–500 nM, 30 µL/min, 25 °C, HBS buffer (10 mM HEPES, 150 mM NaCl, 0.005% P20, pH 7.4); Langmuir 1:1 model with baseline drift
[10] = molecular target: recombinant Candida albicans glyceraldehyde 3-phosphate dehydrogenase (C. albicans) (UniProt Q5ADM7); assay: as above

Substance	Kd [5]	koff [5]	kon [5]	Kd [6]	koff [6]	kon [6]	percent decrease of binding to cells with anti-ScGAPDH antibody [7]	percent decrease of binding to cells with anti-ScGAPDH antibody [8]	other results
GAPDH present on the surface of N. glabratus cells (enzyme)	–	–	–	–	–	–	–	–	stoichiometry N [1]: 4
cytoplasmic Nakaseomyces glabratus glyceraldehyde 3-phosphate dehydrogenase (enzyme)	–	–	–	–	–	–	–	–	Kd [2]: 7 to 14 nM; stoichiometry N [3]: 4
enolase (from UniProt P30575)	–	–	–	–	–	–	–	–	Kd [4]: 40 nM
human plasminogen (natural protein)	8.69 nM	0.000649 s⁻¹	74600 M⁻¹ s⁻¹	150 nM	0.00496 s⁻¹	33000 M⁻¹ s⁻¹	19%	36%	–
human vitronectin (natural protein)	33.9 nM	0.00172 s⁻¹	50700 M⁻¹ s⁻¹	20.6 nM	0.000799 s⁻¹	38900 M⁻¹ s⁻¹	16%	12%	Kd [9]: 48 nM; koff [9]: 0.00183 s⁻¹; kon [9]: 38100 M⁻¹ s⁻¹; Kd [10]: 44.2 nM; koff [10]: 0.000619 s⁻¹; kon [10]: 14000 M⁻¹ s⁻¹
